According to PMC3379994 (2012):

B1: SH3 domain #2 from Nck1, displayed on M13 phage (domain or fragment)
chain: DLNMPAYVKFNYMAEREDELSLIKGTKVIVMEKCSDGWWRGSYNGQVGWFPSNYVTEEGD
B2: SH3 domain from Lyn, displayed on M13 phage (domain or fragment)
chain: EQGDIVVALYPYDGIHPDDLSFKKGEKMKVLEEHGEWWKAKSLLTKKEGFIPSNYVAKLNT
B3: SH3 domain from Hck, displayed on M13 phage (domain or fragment)
chain: not shown
B4: SH3 domain from p85α, displayed on M13 phage (domain or fragment)
chain: AEGYQYRALYDYKKEREEDIDLHLGDILTVNKGSLVALGFSDGQEARPEEIGWLNGYNETTGERGDFPGTYVEYIGR
B5: SH3 domain from Fyn, displayed on M13 phage (domain or fragment)
chain: not shown
B6: SH3 domain #3 from Intersectin 2, displayed on M13 phage (domain or fragment)
chain: SVGEEYIALYPYSSVEPGDLTFTEGEEILVTQKDGEWWTGSIGDRSGIFPSNYVKPKDQ
B7: SH3 domain from Yes, displayed on M13 phage (domain or fragment)
chain: not shown
B8: SH3 domain from Osteoclast stimulating factor 1, displayed on M13 phage (domain or fragment)
chain: GQVKVFRALYTFEPRTPDELYFEEGDIIYITDMSDTNWWKGTSKGRTGLIPSNYVAEQAE

target: His-tagged Sam68 (Src-associated in mitosis, 68 kDa) (human (cDNA from HEK293T cells), UniProt Q07666 1-443); assay: ELISA
Sequence (Q07666 whole entry): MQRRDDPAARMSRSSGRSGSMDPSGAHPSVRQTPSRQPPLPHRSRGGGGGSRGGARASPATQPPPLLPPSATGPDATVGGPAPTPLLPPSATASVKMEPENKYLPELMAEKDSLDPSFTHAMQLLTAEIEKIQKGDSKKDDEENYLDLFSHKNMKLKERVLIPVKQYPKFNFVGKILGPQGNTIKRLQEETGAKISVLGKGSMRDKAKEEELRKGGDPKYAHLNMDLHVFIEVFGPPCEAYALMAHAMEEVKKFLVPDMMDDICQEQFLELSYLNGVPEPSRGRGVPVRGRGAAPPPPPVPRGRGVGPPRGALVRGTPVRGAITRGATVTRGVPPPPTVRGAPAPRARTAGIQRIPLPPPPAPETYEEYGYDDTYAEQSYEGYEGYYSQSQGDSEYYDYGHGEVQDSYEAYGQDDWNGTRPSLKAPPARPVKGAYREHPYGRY

Which Kd does the source give for B1 here?
Its Kd is 31 nM.

Which Kd does the source give for B2 here?
The Kd was 7.9 nM.

How did the Kd turn out when B3 was run?
Its Kd is 31 nM.

How did the Kd turn out when B4 was run?
The Kd was 13 nM.

B5 was tested. Which Kd did it give?
Its Kd is 41 nM.

With B6 as the binder, how does the Kd read?
Its Kd is 59 nM.

With B7 as the binder, how does the Kd read?
The Kd was 5.5 nM.

With B8 as the binder, how does the Kd read?
The Kd was 22 nM.
